First the molecules themselves.
T1: human EphA1 (Homo sapiens, UniProt P21709)
T1 construct: a protein of the extracellular region of each human Eph receptor fused with the SEAP protein and the His tag; made in house; host or cells: Expi293F cells (culture supernatant)
T1 sequence (P21709 26-547 limits assumed): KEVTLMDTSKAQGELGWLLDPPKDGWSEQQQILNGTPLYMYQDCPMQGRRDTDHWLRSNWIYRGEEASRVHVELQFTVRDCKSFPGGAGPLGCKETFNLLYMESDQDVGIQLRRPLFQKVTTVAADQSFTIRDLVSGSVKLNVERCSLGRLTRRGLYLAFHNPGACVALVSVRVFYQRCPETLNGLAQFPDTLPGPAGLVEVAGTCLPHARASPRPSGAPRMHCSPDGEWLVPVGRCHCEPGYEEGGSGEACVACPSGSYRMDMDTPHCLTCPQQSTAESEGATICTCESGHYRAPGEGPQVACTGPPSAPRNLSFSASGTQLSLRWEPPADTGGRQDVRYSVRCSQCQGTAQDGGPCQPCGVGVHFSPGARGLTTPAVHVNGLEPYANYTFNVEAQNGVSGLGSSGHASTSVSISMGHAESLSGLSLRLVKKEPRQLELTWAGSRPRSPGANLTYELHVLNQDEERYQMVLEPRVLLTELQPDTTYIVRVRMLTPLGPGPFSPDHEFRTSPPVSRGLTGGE

B1: 69 (antibody, V domains shown)
VH: QIQLVQSGSELKKPGASVKVSCKASGYTFTDYSMHWVRQAPGQGLKWMGWINTETGEPTYADDFKGRFVFSLDTSVSTAYLQISSLKAEDTAVYYCARIPLYYYGSRYWYFDVWGQGTTVTVSS
VL: DIQMTQSPSSLSASVGDRVTITCRASENIYRNLAWYQQKPGKAPKLLVYAATNLADGVPSRFSGSGSGTDYTLTISSLQPEDFATYYCQHFWGTPWTFGQGTKVEIK
modifications: synthetic humanized antibody heavy chain variable region sequence; synthetic humanized antibody light chain variable region sequence
B2: 81 (antibody, V domains shown)
VL: B1 VL with V48L, P80S
VH: B1 VH with I2V, K46E, D62Q, D63G, K65T
modifications: constant regions without entry; synthetic humanized antibody light chain variable region sequence; synthetic humanized antibody heavy chain variable region sequence
B3: 84 (antibody, V domains shown)
VL: B1 VL with V48L, P80S
VH: B1 VH with I2V, K46E
modifications: constant regions without entry; synthetic humanized antibody light chain variable region sequence; synthetic humanized antibody heavy chain variable region sequence
B4: 86 (antibody, V domains shown)
VL: B1 VL with V48L, P80S
VH: B1 VH
modifications: constant regions without entry; synthetic humanized antibody light chain variable region sequence; synthetic humanized antibody heavy chain variable region sequence
B5: 156 (antibody, V domains shown)
VH: B1 VH with D62Q, D63G, K65T
VL: B1 VL with K45Q, V48L
modifications: synthetic humanized antibody heavy chain variable region sequence; synthetic humanized antibody light chain variable region sequence
B6: 83 (antibody, V domains shown)
VL: B1 VL with V48L, P80S
VH: B1 VH with D62Q, D63G, K65T
modifications: constant regions without entry; synthetic humanized antibody light chain variable region sequence; synthetic humanized antibody heavy chain variable region sequence
B7: 85 (antibody, V domains shown)
VL: B1 VL with V48L, P80S
VH: B1 VH with I2V
modifications: constant regions without entry; synthetic humanized antibody light chain variable region sequence; synthetic humanized antibody heavy chain variable region sequence
B8: 136 (antibody, V domains shown)
VH: B1 VH with I2V
VL: EIVMTQSPATLSVSPGERATLSCRASENIYRNLAWYQQKPGQSPRLLIYAATNLADGIPARFSGSGSGTEYTLTISSLQSEDFAVYYCQHFWGTPWTFGQGTKVEIK
modifications: synthetic humanized antibody heavy chain variable region sequence; synthetic humanized antibody light chain variable region sequence
B9: 82 (antibody, V domains shown)
VL: B1 VL with V48L, P80S
VH: B1 VH with I2V, D62Q, D63G, K65T
modifications: constant regions without entry; synthetic humanized antibody light chain variable region sequence; synthetic humanized antibody heavy chain variable region sequence
B10: antibody A: mouse anti-EphA4 monoclonal antibody, IgG1/κ; heavy chain variable region SEQ ID NO: 11, light chain variable region SEQ ID NO: 13 (antibody, listed as Mus musculus, V domains shown)
VH: QIQLVQSGPELKKPGETVKISCKASGYTFTDYSMHWVKQAPGKGLKWMGWINTETGEPTYADDFKGRFAFSLETSASTAYLQINNLKNEDTATYFCARIPLYYYGSRYWYFDVWGAGTTVTVSS
VL: DIQMTQSPASLSVSVGETVTITCRASENIYRNLAWYQQKQGKSPQLLVYAATNLADGVPSRFSGSGSGTQYSLKINSLQSEDFGSYYCQHFWGTPWTFGGGTKLEIK

The record followed here is patent US10428140B2, “Anti-EphA4 antibody” (EISAI R&D MANAGEMENT CO., LTD., priority 2015, dated 2019).

Where a chain is given by its changes, count along the chain named.

The target in the first experiment is T2, human EphA4 (Homo sapiens, UniProt P54764).
T2 construct: made in house; not restated for the human SEAP-His protein
T2 sequence (P54764 20-547): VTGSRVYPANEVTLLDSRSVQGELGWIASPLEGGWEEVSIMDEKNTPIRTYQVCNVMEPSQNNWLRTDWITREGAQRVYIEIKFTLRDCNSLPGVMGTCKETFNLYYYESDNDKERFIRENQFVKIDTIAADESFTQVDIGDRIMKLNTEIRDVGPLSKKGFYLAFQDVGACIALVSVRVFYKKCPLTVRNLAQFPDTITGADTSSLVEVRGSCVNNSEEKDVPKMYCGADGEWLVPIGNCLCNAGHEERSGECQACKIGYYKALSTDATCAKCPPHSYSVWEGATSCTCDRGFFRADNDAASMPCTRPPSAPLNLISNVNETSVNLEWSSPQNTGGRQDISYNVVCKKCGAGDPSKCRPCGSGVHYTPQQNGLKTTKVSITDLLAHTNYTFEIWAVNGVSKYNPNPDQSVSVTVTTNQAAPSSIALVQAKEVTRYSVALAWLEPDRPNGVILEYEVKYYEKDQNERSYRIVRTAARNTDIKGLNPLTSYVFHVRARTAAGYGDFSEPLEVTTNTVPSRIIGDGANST
The experiment in a line: Selectivity ELISA of humanized antibodies for human Eph receptor. It counts as binding. To be noted: coated protein 1 nM; reference set to 100%. An outline of the steps:
(§1)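 Steps: coat anti-His antibody; block, then 1% BlockAce overnight at 4 °C; add Eph receptor extracellular region-SEAP-His (1 nM final) 1 h; add humanized antibody 1 h; add HRP anti-IgG 1 h; develop TMB; stop with acid; read 450 nm.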
For the molecule B1, the “hEphA4-SEAP-: absorbance at 450 nm, percentage with respect to hEphA4-SEAP-His as 100%” value was found to be 100%.

For B2, the “hEphA4-SEAP-: absorbance at 450 nm, percentage with respect to hEphA4-SEAP-His as 100%” value turned out to be 100%.

B3: the “hEphA4-SEAP-: absorbance at 450 nm, percentage with respect to hEphA4-SEAP-His as 100%” value is listed as 100%.

As to B4, the “hEphA4-SEAP-: absorbance at 450 nm, percentage with respect to hEphA4-SEAP-His as 100%” value was determined as 100%.

Regarding B5, the “hEphA4-SEAP-: absorbance at 450 nm, percentage with respect to hEphA4-SEAP-His as 100%” value is listed as 100%.

On to B6, for which the “hEphA4-SEAP-: absorbance at 450 nm, percentage with respect to hEphA4-SEAP-His as 100%” value is 100%.

For the molecule B7, the “hEphA4-SEAP-: absorbance at 450 nm, percentage with respect to hEphA4-SEAP-His as 100%” value came out at 100%.

As for B8, the “hEphA4-SEAP-: absorbance at 450 nm, percentage with respect to hEphA4-SEAP-His as 100%” value is listed as 100%.

For the molecule B9, the “hEphA4-SEAP-: absorbance at 450 nm, percentage with respect to hEphA4-SEAP-His as 100%” value was 100%.

For a further experiment, the target named is T1, human EphA1. The description is as above. It counts as binding. To be noted: coated protein 1 nM. The method in brief: as §1
Turning to B1, the “hEphA1-SEAP-: absorbance at 450 nm, percentage with respect to hEphA4-SEAP-His as 100%” value is listed as 5.7%.

As for B2, the “hEphA1-SEAP-: absorbance at 450 nm, percentage with respect to hEphA4-SEAP-His as 100%” value was 4.4%.

Turning to B3, the “hEphA1-SEAP-: absorbance at 450 nm, percentage with respect to hEphA4-SEAP-His as 100%” value is on record as 5.2%.

Turning to B4, the “hEphA1-SEAP-: absorbance at 450 nm, percentage with respect to hEphA4-SEAP-His as 100%” value was determined as 5.9%.

As to B5, the “hEphA1-SEAP-: absorbance at 450 nm, percentage with respect to hEphA4-SEAP-His as 100%” value is 5.7%.

Consider B6, for which the “hEphA1-SEAP-: absorbance at 450 nm, percentage with respect to hEphA4-SEAP-His as 100%” value was 5.7%.

For the molecule B7, the “hEphA1-SEAP-: absorbance at 450 nm, percentage with respect to hEphA4-SEAP-His as 100%” value turned out to be 5.0%.

B8: the “hEphA1-SEAP-: absorbance at 450 nm, percentage with respect to hEphA4-SEAP-His as 100%” value amounted to 5.3%.

For B9, the “hEphA1-SEAP-: absorbance at 450 nm, percentage with respect to hEphA4-SEAP-His as 100%” value was determined as 5.4%.

The target of the next experiment is T2, human EphA4. The experiment in a line: Affinity of humanized antibodies by SPR (Biacore T200). The class given is binding. To be noted: human EphA4 extracellular region-SEAP-His; 1:1 binding model. The method, then:
The binding affinity of each anti-EphA4 monoclonal humanized antibody obtained in Example 16 for human EphA4 was determined by surface plasmon resonance (SPR) using Biacore T200 (GE Healthcare). First, for the assay of antibody A, a rat anti-mouse IgG1 antibody produced with a conventional method by immunizing rat with mouse IgG1 antibody was immobilized on sensor chip CM5. The immobilization of the rat anti-mouse IgG1 antibody on sensor chip CM5 was performed by the amine coupling method using N-hydroxysuccinimide (NHS) and N-ethyl-N′-(3-dimethylaminopropyl)carbodiimide hydrochloride (EDC). Ethanolamine was used in blocking (the sensor chip and the reagents for immobilization were all manufactured by GE Healthcare). The antibody was diluted with a buffer solution for immobilization (10 mM sodium acetate, pH 4.5) and immobilized on the sensor chip according to the protocol attached to Biacore T200. For the assay of each humanized monoclonal antibody, a protein A chip (GE Healthcare, 29-1383-03) was used. Antibody A or the humanized monoclonal antibody was diluted with a running buffer solution HBS-EP (GE Healthcare), injected onto only flow cell 2 for 120 seconds, and captured (captured amount: approximately 30 to 60 RU). Subsequently, human EphA4 extracellular region-SEAP-His protein serially diluted in the range of 50, 16.7, 5.6, 1.9, and 0.6 nM using HBS-EP was sequentially added from the lower toward higher concentration sides without regeneration operation. Binding reaction curves were sequentially observed at the time of the addition (association phase, for 120 sec) and after the completion of the addition (dissociation phase, for 900 sec). After the completion of each observation, the sensor chip was regenerated by the addition of 3 M MgCl2 (for 60 sec) or 10 mM Glycine-HCl pH 1.5 (for 30 sec). The obtained binding reaction curves were subjected to fitting analysis with 1:1 binding models using software BIA evaluation attached to the system to calculate the affinity (KD=kd/ka) for human EphA4 (Table 6).
For B10, the ka was found to be 420000 M⁻¹ s⁻¹ and the kd is 0.00025 s⁻¹.

In turn, B1 showed a ka of 340000 M⁻¹ s⁻¹ and a kd of 0.00037 s⁻¹.

The molecule B2 had a ka of 340000 M⁻¹ s⁻¹ and a kd of 0.00054 s⁻¹.

The molecule B3 returned a ka of 350000 M⁻¹ s⁻¹ and a kd of 0.00056 s⁻¹.

With B4, the ka turned out to be 310000 M⁻¹ s⁻¹ and the kd stood at 0.00046 s⁻¹.

B6 came in with a ka of 290000 M⁻¹ s⁻¹ and a kd of 0.00054 s⁻¹.

The molecule B7 showed a ka of 310000 M⁻¹ s⁻¹ and a kd of 0.0005 s⁻¹.

In the case of B9, the ka turned out to be 290000 M⁻¹ s⁻¹ and the kd was determined as 0.00046 s⁻¹.

The experiment is the same for the next values; noted with them: human EphA4 extracellular region-SEAP-His; KD=kd/ka.
Take B1: the dissociation constant (Kd) was determined as 1.1 nM.

As to B2, the Kd is 1.6 nM.

Molecule B3 showed a dissociation constant Kd of 1.7 nM.

In turn, B4 displayed a dissociation constant Kd of 1.5 nM.

Regarding B6, the Kd was found to be 1.9 nM.

On to B7, for which the Kd amounted to 1.6 nM.

Turning to B9, the Kd worked out at 1.6 nM.
